Ends that are not written are not given here.
B1: 3BP2 TBM peptide (WT positive control) (peptide)
chain: LPHLQRSPPDGQSFRS
modifications: also: fluorescein or 5(6)-carboxyfluorescein linked via β-Ala, site not given here
B2: TNKS2 ARC5 (domain or fragment)
chain: GAMGSDLLRGDAALLDAAKKGCLARVKKLSSPDNVNCRDTQGRHSTPLHLAAGYNNLEVAEYLLQHGADVNAQDKGGLIPLHNAASYGHVDVAALLIKYNACVNATDKWAFTPLHEAAQKGRTQLCALLLAHGADPTLKNQEGQTPLDLVSADDVSALLTAAMPP

Columns and labels:
TNKS2 ARC5 = target: B2; assay: FP
MERIT40 (two peptides) [1] = target: T1, MERIT40 (two peptides) (fluorescein or 5(6)-carboxyfluorescein fluorophore; the fluorescein is linked via β-Ala); assay: FP; MERIT40 II peptide (…)
MERIT40 (two peptides) [2] = target: T1, MERIT40 (two peptides); assay: FP; MERIT40 I peptide (…)

Row | Kd (TNKS2 ARC5) [nM] | Kd (MERIT40 (two peptides) [1]) [nM] | Kd (MERIT40 (two peptides) [2]) [nM] | Binder
1 | 390 |  |  | B1
2 |  | 3000 | 530 | B2

Source: PMC6082341 (2017)
